The target in the series is Cy5-EF-Tu E348C (AV) C137A,C255V,E348C (Escherichia coli) (UniProt P0CE48). The conditions noted are these: native tRNA modifications; 3'-aminoacylated with Phe; Cy3 on acp3U47; FRET titration; GTP form, 100 uM GTP, 8 mM Mg, 25 C.

Broadly, the Kd is the free concentration of one partner at which half of the binding sites on the other are occupied at equilibrium, for simple one-to-one binding. A high value points to lower affinity.

As to Phe-tRNAPhe(Cy3), the Kd amounted to 11 nM. In other words, the double-digit nanomolar range.
